Data published in patent US20230257435A1, “Wound Healing Composition and Uses Thereof” (AGENCY FOR SCIENCE, TECHNOLOGY AND RESEARCH, priority 2020, published 2023).

Tests used:
human skin explants = experiment: Human skin explant (EPIDERM-FT) punch wound healing; type: cell-based; conditions: explants treated with Agrin siRNA #1; 20 μg sAgrin in ointment on days 2, 4, 6
From the text: Human epidermal keratinocyte cell line HaCaT was maintained in Dulbecco's modified Eagle's Medium (DMEM) (Gibco) containing 10% fetal bovine serum (FBS) with Penicillin and Streptomycin (Gibco Cat #15140148) antibiotics. The human foreskin normal fibroblasts (BJ) obtained from ATCC (ATCC® CRL-2522™) were passaged in DMEM (Gibco) with antibiotics. Normal primary adult epidermal keratinocytes (HEK) purchased from CELL Applications, Inc., (Cat #C-12003) were maintained in manufacturer provided keratinocyte growth medium as recommended. Primary keratinocytes from C57BL mouse strain were purchased from CellBiologics (Cat #C57-6066K) and maintained as per manufacturer recommended Epithelial cell growth medium (Cat #M6621, CellBiologics). The mouse primary dermal fibroblasts were isolated from C57BL mouse strain (Cat #m-GFP-6067), and cultured in complete fibroblast medium (CellBiologics, Cat #M2267). […]
Human skin equivalents and mice skin tissues were harvested, embedded, and subjected to routine histology using Hematoxylin and Eosin. […] Quantification of collagen as a marker for ECM deposition was done by picrosirius red staining of paraffin embedded mouse skin tissues, as per previously published protocol.

mouse skin punch wounds = experiment: Punch-biopsy wound healing model, splinted; type: in vivo
Protocol: Six to eight to week old female experimental ICR (nomenclature: IcrTac:ICR) mice purchased from InVivos were used for punch-biopsy wound healing in vivo assays. In the ex-vivo mouse skin explant assay, random ratios of male and female new born ICR mouse pups were used. Wherever possible, the experiments were performed taking into consideration an ethical and reductionist approach of animal usage. Animal studies were not performed in a blinded fashion. The animals were randomly assigned to different experimental groups. The number of animals used for each experiment is indicated in the legend as n=x mice per group. All animal experiments performed were done in accordance with experimental protocols reviewed by the Biological Resource Center (BRC), Agency for Science Technology and Research (A*STAR) under strict compliance to the Institutional Animal Care and Use Committee (IACUC) guidelines for ethical use of animal models in biological research.
The mice were housed under standard conditions of 21° C. and a 12 h light-dark cycle with free access to food. Subsequently, the mice were intraperitoneally (i.p.) anesthezised using Ketamine 100 mg/kg and Xylazin 10 mg/kg diluted in […] of saline solution. The fur was shaved from the base of the neck towards the back on the entire shoulder region. The skin was wiped with an alcohol swab and 10% povidone-iodine (Betadine) antiseptic solution. Circular symmetrical 4 mm wounds were inflicted on either side of the midline in the shoulder region using a sterile 4 mm punch biopsy needle (Integra Miltex, Integra York, P.A., Inc.). The wound skin was carefully removed using a scalpel and a pair of scissors to generate a full-thickness wound that were left open for topical administrations during the analysed time periods. For splinted wound healing models, a 10 mm transparent donut shaped nylon sheet (Grace Bio-Laboratories, Bend, Oreg.) was placed around the 4 mm wound. The splint was placed with the wound at the center, glued to the skin by adhesive (Krazy Glue®; Elmer's Inc.), and covered by Tegaderm dressing. The wounds were treated with different formulations based on either petroleum jelly (Vaseline), a thermoresponsive hydrogel (Pluronic F127-Sigma) or a commercially available skin ointment (Aquaphore-Beiersdorf, Inc.). For Vaseline based ointment cream preparation, 10 mg per cm^2 vaseline ointment was mixed with filtered PBS solutions containing the indicated amounts of Agrin (100 μg, 200 μg or 500 μg) and 100 μg BSA (w/w) were used and applied topically every two days. For siRNA mediated knockdown experiments, 75 nM of indicated siRNAs were incubated with lipofectamine in PBS. Subsequently, a 1:1 mixture of PBS (containing the siRNAs): Aquaphore was applied topically on the wound region every two days. A topical formulation comprising of 20% (w/w) Pluronic F127 (Sigma) was used to dissolve in sterile and 0.22μ filtered solution containing a final concentration of 200 μg/ml sAgrin or BSA. This mixture was dissolved overnight at 4° C. to ensure that liquid phase is achieved. The mixture forms a homogenous gel at temperatures above ˜20° C. and was dispersed topically to cover the wound. Wound closure was assessed using a Vernier caliper every alternate day. For both models, the animals were caged individually throughout the observed time-points of healing at the institutional animal facility. All wound healing animal experiments performed were done in accordance with experimental protocols reviewed by the Biological Resource Center (BRC), Agency for Science Technology and Research (A*STAR) under strict compliance to the Institutional Animal Care and Use Committee (IACUC) guidelines for ethical use of animal models in biological research.
Human skin equivalents and mice skin tissues were harvested, embedded, and subjected to routine histology using Hematoxylin and Eosin. For immunostaining, the tissues were fixed for 24 h in 10% neutral buffered formalin solution. […]

pMLC = experiment: Force transmission via ligand conjugated magnetic beads; type: cell-based, human

B1: sAgrin: C-terminus recombinant Agrin fragment containing 8 amino acid 'Z8' insert and LG3 domain (SEQ ID NO: 7), His-tagged, expressed in E. coli (protein)
chain: DTLAFDGRTFVEYLNAVTESELANEIPVEKALQSNHFELSLRTEATQGLVLWSGKATERADYVALAIVDGHLQLSYNLGSQPVVLRSTVPVNTNRWLRVVAHREQREGSLQVGNEAPVTGSSPLGATQLDTDGALWLGGLPELPVGPALPKAYGTGFVGCLRDVVVGRHPLHLLEDAVTKPELRPCPTP
modifications: His tag
**Q.** For B1, which “wound healing and migration of keratinocytes (rescue)” value (human skin explants) is on record?
**A.** The value was “significantly rescued the wound healing and the migration of keratinocytes”.

**Q.** And the “wound healing, Pluronic F127” value (mouse skin punch wounds; 200 ug sAgrin vs collagen or BSA, 12 days)?
**A.** The value was “significantly accelerated wound healing when compared to similar concentrations of collagen or BSA”.

**Q.** And the “pMLC expression in wound edges and beds under MMP12 depletion” value (mouse skin punch wounds; MMP12 siRNA, 200 μg sAgrin)?
**A.** The value was “significantly attenuated in MMP12 depleted skin sections”.

**Q.** What about the “sAgrin accelerated healing rates and re-epithelialization under MMP12 depletion” value (mouse skin punch wounds; MMP12 siRNA, 200 μg sAgrin, within 10 days) of the same molecule?
**A.** The value was “dramatically reduced upon MMP12 depletion”.

**Q.** And the “CD-31 expressing blood vessels under MMP12 suppression” value (mouse skin punch wounds; day 10)?
**A.** The value was “failed to induce robust CD-31 expressing blood vessels”.

**Q.** What about the “sAgrin induced mature and mixed collagen fiber deposition under MMP12 depletion” value (mouse skin punch wounds; day 10) of the same molecule?
**A.** The value was “significantly diminished upon MMP12 depletion”.

**Q.** What about the “deposition of collagen fibers in wound beds” value (mouse skin punch wounds; day 10, vs BSA and Collagen) of the same molecule?
**A.** The value was “higher deposition of mature and mixed collagen fibers”.

**Q.** And the “histology of wound area” value (mouse skin punch wounds; day 10 post-wounding, vs BSA or Collagen)?
**A.** The value was “predominantly represented healed skin with the emergence of regenerated hair follicles”.

**Q.** And the “number of blood vessels and their diameters” value (mouse skin punch wounds; day 12 post-injury, vs BSA or Collagen)?
**A.** The value was “increased number of blood vessels and their diameters”.

**Q.** And the “pMLC recruitment in control cells upon force (bead pull-down Western)” value (pMLC; siControl cells)?
**A.** Its value is “greater pMLC recruitment in control cells compared to FN, but similar to that induced by Syndecan-4”.

**Q.** And the “pMLC with temporal increase of force application” value (pMLC; up to 60 min)?
**A.** The value was “enhanced pMLC mechanoperception”.
